The values that follow are results of earlier work, collected in US11850285B2, “Insulin-responsive glucagon delivery patch” (North Carolina State University, priority 2017, dated 2023).

The conditions of this data set: in vivo.

Consider Insulin glargine, for which the duration entry is given as “up to 24 hour”.
